Patent US20240002477A1 (UNIVERSITY OF CHICAGO, published 2024)

Columns and labels:
[1] = target: SARS-CoV-2 spike receptor-binding domain (SARS-CoV-2, UniProt P0DTC2 319-541); test: mAb table, Specificity column (recombinant IgG1; ELISA)
[2] = target: T1, SARS-CoV-2 ORF8 protein (SARS-CoV-2, UniProt P0DTC8 16-121); test: as above
T1 construct: domain: Ig-like domains; also called open reading frame 8
T1 sequence (P0DTC8 16-121, tags left off): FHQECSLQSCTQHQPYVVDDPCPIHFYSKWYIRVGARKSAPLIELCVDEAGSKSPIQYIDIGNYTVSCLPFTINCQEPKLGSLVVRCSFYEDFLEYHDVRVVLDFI

Binder | binding result [1] | binding result [2]
S20-74 (antibody, V domains shown, recombinant human IgG1) VH: QVQLQESGPGLVKPSETLSLTCTVSGGSISSHYWSWIRQPPGKGLEQIGYMYYSGSTNYNPSLKSRVIISVDTSKNQFSLKLSSVTAADTAVYYCAGRDQLLYGADGFDIWGQGTMVTVSS VL: QSALTQPPSASGSPGQSVTISCTGTSSDVGGYNYVSWYQQHPGKAPKLMIYEVSKRPSGVPDRYSGSKSGNTASLTVSGLQAEDEADYYCSSYAGSSNHVIFGGGTKLTVL | binds | –
S144-741 (antibody, V domains shown, recombinant human IgG1) VH: QVHLVQSGAEVKKPGASVKVSCKASGYTFTGYYMNWVRQAPGQGLEWMGRINPNSGGTNYAQKFQGRVTMTRDTSISTAYMELSRLRSDDAAVYYCARAERYSSSWYNLYYWGQGTLVTVSS VL: not shown | – | binds
S564-152 (antibody, V domains shown, recombinant human IgG1) VH: QVQLVESGGGVVQPGRSLRLSCAASGFTFSYYGMHWVRQAPGKGLEWVAVIWYDGSNKHYADSVKGRFTISRDNSKNTLYLQMNSLRAEDTAVYYCAKNAAPYCSGGSCYGTYFDYWGQGTLVTVSS VL: DIQMTQSPSSLSASVGDRVTITCQASQDINNYLNWYQQKPGKAPKLLIYDASNLETGVPSRFSGSGSGTDFTFTISSLQPEDIATYYCQQYDNVPPHTFGQGTKLEIK | binds | –
S564-14 (antibody, V domains shown, recombinant human IgG1) VH: EVQLVESGGGLVQPGGSLRLSCAASGLTFSSYWMSWARQAPGKGLEWVANIKKDGSEKYYVDSVKGRFTISRDNAKNSLYLQMNSLRVEDTAVYYCASEPPHYGGNSGAEYFQHWGQGTLVTVSS VL: SYVLTQPPSVSVAPGKTARITCGGNNIGSKSVHWYQQRPGQAPVLVIYYDSDRPSGIPERFSGSNSGNTATLTISRVEAGDEADYYCQVWDSSSDHHYVFGTGTKVTVL | binds | –
S144-175 (antibody, V domains shown, recombinant human IgG1) VH: QVQLVQSGAEVKKPGASVKVSCKASGYTFTGYYMHWVRQAPGQGLEWMGRINPNSGGTNFAQRFQGRVSMTRDTSISTAYMELSSLRSDDTAVYYCARGAKFEHLPFDIWGQGTMVTVSS VL: QSMLTQPPSASGTPGQRVTISCSGSSSNIGSNYVYWYQQLPGTAPKLLIYRNNQRPSGVPDRFSGSKSGTSASLAISGLRSEDEADYYCAAWDDRRWVFGGGTKLTVL | – | binds
S144-843 (antibody, V domains shown, recombinant human IgG1) VH: QVQLVESGGGVVQPGGSVRLSCAASGFDFTNNGMYWVRQAPGKGLEWVAFIRYDGNKQDYADSVKGRFTISRDNSKNTLYLQMSSLRPEDTAVYYCAKGVYTENYGWGQGTLVTVSS VL: EIVLTQSPGTLSLSPGERATLSCRASQTVTSRYLAWYQQKPGQAPRLLIYGASTRATGIPDRFSGSGSGTDFTLTISRLEPEDFAVYYCQQYGNSPPYTFGQGTKLEIK | – | binds
S24-1384 (antibody, V domains shown) VH: EVQLVESGGGLVQPGGSLRLSCAVSGFTFSSYSMNWVRQAPGKGLEWVSYISSSSSIIYYADSVKGRFTISRDNAKNSLYLQMNSLRAEDTAVYYCARDFLDYSRSYSYGMDVWGQGTTVTVSS VL: SYVLTQPPSVSVAPGQTARITCGGDNIGSKNVHWYQQKPGQAPVLVVFDDSDRPSGIPERFSGSNSGNTATLTISRVEAGDEADYYCQVWDSSSDHYVVFGGGTKLTVL | binds | –
S144-208 (antibody, V domains shown, recombinant human IgG1) VH: not shown VL: QSALTQPRSVSGSPGQSVTISCTGTSSDVGGYKYVSWYQQHPGKAPKLMIYDVSKRPSGVPDRFSGSKSGNTASLTISGLQAEDEGDYYCCSYAGTYSLVFGGGTKVTV | – | binds
S144-466 (antibody, V domains shown, recombinant human IgG1) VH: EVQLVQSGAEVKKPGESLKISCKGSGYRFTRYWIGWVRQMPGKGLEWMGIIYLGDSETRYSPSFQGQVTISADNSISTAYLQWSSLKASDTAMYYCARSSNWNYGDYWGQGTLVTVSS VL: DIQMTQSPSTLSASVGDRVTITCRASQSITSWLAWYQQKSGKAPKLLIYDASSLESGVPSRFSGSGSGTEFTLTISSLQPDDFATYYCQQYNSYPWTFGQGTKVEIK | binds | –
S144-1299 (antibody, V domains shown, recombinant human IgG1) VH: QVQLQESGPGLVKPSETLSLTCTVSGGSISSYYWSWIRQPPGKGLEWIGYINYRGITNYNPSLKSRVTISVDMSKNQFSLKLSSVTAADTAVYSCARLAVASRGTVDYWGQGTLVTVSS VL: not shown | – | binds
S144-69 (antibody, V domains shown, recombinant human IgG1) VH: EVQLVQSGAEVKKPGESLKISCKGSGYSFTSYWIGWVRQMPGKGLEWMGIIYPGDSDTRYSPSFQGQVTISADKSITTAYLQWSSLKASDTAMYYCARTQTTNWFDSWGQGTLVTVSS VL: DIQMTQSPSTLSVSVGDRVTITCRASQSVSSWLAWYQQKPGKAPKLLIYDASSLESGVPSRFSGSGSGTEFTLTISSLQPDDFATYYCQQYNSFYTFGQGTKLEIK | binds | –
S144-509 (antibody, V domains shown, recombinant human IgG1) VH: EVQLVQSGAEVKKPGESLKISCKGSAYTFTTYWIGWVRQMPGKGLEWMGIIYPGDSDTRYSPSFQGQVTISADKSISTAYLQWSSLKASDTAMYYCARLLLVAGPFDYWGQGTLVTVSS VL: not shown | binds | –
S564-138 (antibody, V domains shown, recombinant human IgG1) VH: QVLLVQSGAEVKKPGASVKVSCKASGYTFTGYYLHWVRQAPGQGLEWMGWINPISGGTNYAQNFQDRVTMTRDTSIITAYMELSRLRSDDTAVYYCARLAYYYDSSAYRGAFDIWGQGTMVTVSS VL: QSALTQPASVSGSPGQSITISCTGTSSDVGGYNYVSWYQQHPGKAPKLMIYEVSNRPSGVSDRFSGSKSGNTASLTISGLQAEDEADYYCSSYTSSSTYVFGTGTKVTVL | binds | –
S564-287 (antibody, V domains shown, recombinant human IgG1) VH: not shown VL: QSALTQPASVSGSPGQSITISCTGTSSDVGGYNYVSWYQQHPGKAPKLMIYDVSNRPSGVSNRFSGSKSGNTASLTISGLQAEDEADYYCSSYASSSTWVFGGGTKLTVL | – | binds
S144-67 (antibody, V domains shown, recombinant human IgG1) VH: EVQLVQSGAEVKKPGESLKISCKGSGYSFTTYWIAWVRQMPGKGLEWVGIIYPDDSDTRYSPSFQGQVTISADKSIGTAYLQWSSLKASDTAMYYCARGQYYDFWSGAGGVDVWGQGTTVTVSS VL: QSVLTQPPSVSGAPGQRVTISCTGSRSNIGAGYDVQWYQQVPGTAPKLLISGNSNRPSGVPDRFSGSKSGTSASLAITGLQAEDEADYYCQSYDSSLSGLRVFGGGTKLTVL | binds | –
S24-1345 (antibody, V domains shown) VH: QLQLQESGPGLVKPSETLSLTCTVSGGSISSSSYYWGWIRQPPGKGLEWIGSIYYSGSTYYNPSLKSRVTISVDTSKNQFSLKLSSVTAADTAVYYCARRIRRPTSEVVITYVFDYWGQGTLVTVSS VL: AIQLTQSPSSLSASVGDRVTITCRASQGISSALAWYQQKPGKAPKLLIYDASSLESGVPSRFSGSGSGTDFTLTISSLQPEDFATYYCQQFNSYLTFGGGTKVEIK | – | binds
S24-1224 (antibody, V domains shown, recombinant human IgG1) VH: QVQLVQSGAEVKKPGASVRVSCKASGYTFTSYYIYWVRQAPGQGLEWMGVINPSGGSTSYAQKFQGRVTLTRDTSTSTVYMDLSSLRSEDTAVYYCARDPIMWEVVTRGRGNWFDPWGQGTLVTVSS VL: QSVLTQPPSVSGAPGQRVTIPCTGSSFNIGAGYDVHWYQQLPGTAPKLLIFGNSNRPSGVPDRFSGSRSGTSASLAITGLQAEDEADYYCQSYDSSLSGVVFGGGTTLTVL | binds | –
S24-278 (antibody, V domains shown, recombinant human IgG1) VH: QVQLVQSGAEVKKPGASVKVSCKASGYTFTGYYMHWVRQAPGQGLEWMGWINPNSGDTNYAQKFQGWVTMTRDTSLSTAYMELSRLKSDDTAVYYCARVGVGEYSGRHYYYYGMDVWGQGTTVTVSS VL: not shown | – | binds
S144-1079 (antibody, V domains shown, recombinant human IgG1) VH: QVQLVQSGAEVKKPGSSVKVSCKASGDTFGSYSITWVRQAPGQGLEWMGRIIPVLGIANYAQKFQGRVTITADKSTSTAYMELSSLRSEDTAVYYCAGGGCSGGNCYSWYNWFDPWGQGSLVTVSS VL: EIVLTQSPGTLSLSPGERATLSCRASQSVSSNYLAWYQQKPGQAPRLLIYGASSRATGIPERFSGSGSGTDFTLTISRLEPEDFAVYYCQQYGRSPYTFGQGTKLEIK | binds | –
S144-588 (antibody, V domains shown, recombinant human IgG1) VH: QLQLQESGPGLVKPSETLSLTCTVSGGSISSSSYYWGWIRQPPGKGLEWIGSIYYSGSTYYNPSLKSRFTISVDTSKNQFSLKLSSVTAADTAVYYCAAYQRKLGYCRGNSCFSCFDPWGQGTLVTVSS VL: not shown | – | binds
S144-1406 (antibody, V domains shown, recombinant human IgG1) VH: QVQLVQSGAEVKKPGASVKVSCKASGYTFTTYAMHWVRQAPGQRLEWMGWINAGNGNTKYSQNFQGRVTITRDTSASTAYMELSSLRSEDTAVYYCASLVGGDSSSWYDYMDVWGKGTTVTVSS VL: not shown | binds | –
S24-636 (antibody, V domains shown) VH: EVQLVESGGGLVQPGGSLRLSCAASGFTLSSYWMSWVRQAPGKGLEWVANIKQDGSEKYYVDSVKGRFTISRDNAKNSLYLQMNSLRAEDTAVYYCARDLTATWFDPWGQGTLVTVSS VL: QTVVTQEPSFSVSPGGTVTLTCGLSSGSVSTSYYPSWYQQTPGQAPRTLIYSTNKRSSGVPDRFSGSILGNKAALTITGAQADDESDYYCVLYMGSGMSVFGGGTKLTVL | – | binds
S24-1378 (antibody, V domains shown, recombinant human IgG1) VH: EVQLVESGGGLVQPGGSLRLSCAASGFTVSSNYMSWVRQAPGKGLEWVSVIYSGGSTYYADSVKGRFTISRHNSKNTLYLQMNSLRAEDTAVYYCAREGYCTNGVCYRHAFDIWGQGTMVTVSS VL: QTVVTQEPSFSVSPGGTVTLTCGLSSGSVSTSYYPSWYQQTPGQAPRTLIYSTNTRSSGVPDRFSGSILGNKAALTITGAQADDESDYYCVLYMGSGISVFGGGTKLTVL | – | binds
